Measured values published in patent US20200199213A1 (Eli Lilly, published 2020).

T1: human ANGPTL3/8 complex (human, UniProt Q9Y5C1 17-460; Q6UXH0 22-198, limits assumed)
T1 construct: also called hANGPTL3/8 complex; ANGTPL3/8 complex
T1 sequence 1: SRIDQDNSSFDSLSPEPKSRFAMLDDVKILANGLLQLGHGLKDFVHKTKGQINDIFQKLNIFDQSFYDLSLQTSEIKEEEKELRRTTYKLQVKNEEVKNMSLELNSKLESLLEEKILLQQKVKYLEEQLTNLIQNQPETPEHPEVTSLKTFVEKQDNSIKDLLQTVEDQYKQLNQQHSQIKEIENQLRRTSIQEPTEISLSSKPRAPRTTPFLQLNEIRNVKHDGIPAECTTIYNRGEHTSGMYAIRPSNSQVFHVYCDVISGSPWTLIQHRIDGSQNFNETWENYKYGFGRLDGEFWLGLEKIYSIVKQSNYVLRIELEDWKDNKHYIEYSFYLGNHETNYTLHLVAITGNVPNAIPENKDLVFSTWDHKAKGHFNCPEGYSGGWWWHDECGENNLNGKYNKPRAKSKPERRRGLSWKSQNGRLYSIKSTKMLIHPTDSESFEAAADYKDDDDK
T1 sequence 2: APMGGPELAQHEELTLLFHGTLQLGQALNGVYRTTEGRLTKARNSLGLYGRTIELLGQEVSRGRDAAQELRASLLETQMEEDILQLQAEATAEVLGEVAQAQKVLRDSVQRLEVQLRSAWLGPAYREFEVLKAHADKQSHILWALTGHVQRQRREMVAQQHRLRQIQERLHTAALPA

T2: human ANGPTL8 (human, UniProt Q6UXH0 22-198)
T2 construct: Biotinylated in the ELISA assays; also called hANGPTL8; free ANGPTL8
T2 sequence: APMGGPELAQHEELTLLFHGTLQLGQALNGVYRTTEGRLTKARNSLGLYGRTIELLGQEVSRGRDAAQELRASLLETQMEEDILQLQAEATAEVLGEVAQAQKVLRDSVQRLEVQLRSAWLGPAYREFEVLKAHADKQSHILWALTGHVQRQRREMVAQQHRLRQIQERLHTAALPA

T3: human ANGPTL3 (human, UniProt Q9Y5C1 17-460)
T3 construct: Biotinylated in the ELISA assays; also called hANGPTL3; free ANGPTL3
T3 sequence: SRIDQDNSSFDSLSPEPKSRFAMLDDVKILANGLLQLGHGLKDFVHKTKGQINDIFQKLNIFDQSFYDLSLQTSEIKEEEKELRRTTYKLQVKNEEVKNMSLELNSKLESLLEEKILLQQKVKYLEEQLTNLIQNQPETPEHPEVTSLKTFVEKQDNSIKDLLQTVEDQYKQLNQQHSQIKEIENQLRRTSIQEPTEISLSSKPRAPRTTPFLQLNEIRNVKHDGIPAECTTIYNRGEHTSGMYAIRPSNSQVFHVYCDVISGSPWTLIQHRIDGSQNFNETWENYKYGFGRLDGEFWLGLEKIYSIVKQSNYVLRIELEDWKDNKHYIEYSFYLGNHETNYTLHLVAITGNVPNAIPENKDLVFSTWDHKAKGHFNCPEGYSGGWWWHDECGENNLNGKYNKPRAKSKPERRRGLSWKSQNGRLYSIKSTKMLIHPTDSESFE

T4: mouse ANGPTL3/8 complex (mouse, UniProt Q9R182 17-455; Q8R1L8 16-198, limits assumed)
T4 sequence (looked up) 1: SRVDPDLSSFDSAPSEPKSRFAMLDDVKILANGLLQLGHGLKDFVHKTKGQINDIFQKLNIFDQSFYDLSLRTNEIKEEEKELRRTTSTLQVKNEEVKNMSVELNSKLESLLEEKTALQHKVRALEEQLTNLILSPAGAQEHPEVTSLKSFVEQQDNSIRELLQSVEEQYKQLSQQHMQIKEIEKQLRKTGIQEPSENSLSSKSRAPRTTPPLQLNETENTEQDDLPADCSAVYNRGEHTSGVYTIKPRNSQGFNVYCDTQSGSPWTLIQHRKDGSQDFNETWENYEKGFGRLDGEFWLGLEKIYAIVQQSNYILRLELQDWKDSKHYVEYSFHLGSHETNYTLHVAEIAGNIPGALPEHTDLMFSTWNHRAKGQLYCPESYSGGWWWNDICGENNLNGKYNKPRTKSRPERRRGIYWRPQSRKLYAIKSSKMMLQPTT
T4 sequence (looked up) 2: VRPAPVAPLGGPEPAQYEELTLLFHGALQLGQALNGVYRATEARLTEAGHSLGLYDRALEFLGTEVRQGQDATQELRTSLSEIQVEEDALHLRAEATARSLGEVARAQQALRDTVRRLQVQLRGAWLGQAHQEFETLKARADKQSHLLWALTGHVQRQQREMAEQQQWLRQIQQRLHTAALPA


Legend:
human ANGPTL3/8 complex [1] = molecular target: T1, human ANGPTL3/8 complex; experiment: ELISA; Ab captured by anti-human Fc; biotinylated antigen at 1.23 nM
Description: (§1) ELISA Assay: Ab binding selectivity to either the ANGPTL3/8 complex, free ANGPTL3 or free ANGPTL8 is verified using standard ELISA assays. […] Ab from CHO supernatants after expression in CHO cells is then captured to the assay plate and results is an Ab concentration of 2 μg/ml. Biotinylated antigen (ANGPTL3, ANGPTL8 or ANGPTL3/8 complex) is added at varying concentrations by serial dilution to allow for Ab/antigen binding. Ab/antigen complexes are detected after the addition of alkaline phosphatase-conjugated neutravidin, and alkaline phosphatase substrate, and subsequent measurement of the optical density at 560 nm.

human ANGPTL8 [2] = molecular target: T2, human ANGPTL8; experiment: as above
Description: as §1

human ANGPTL3 [3] = molecular target: T3, human ANGPTL3; experiment: as above
Description: as §1

human ANGPTL3/8 complex [4] = molecular target: T1, human ANGPTL3/8 complex; experiment: ELISA; Ab captured by anti-human Fc; biotinylated antigen at 3.70 nM
Description: as §1

human ANGPTL8 [5] = molecular target: T2, human ANGPTL8; experiment: as above
Description: as §1

human ANGPTL3 [6] = molecular target: T3, human ANGPTL3; experiment: as above
Description: as §1

human ANGPTL3/8 complex [7] = molecular target: T1, human ANGPTL3/8 complex; experiment: ELISA; Ab captured by anti-human Fc; biotinylated antigen at 33.3 nM
Description: as §1

human ANGPTL8 [8] = molecular target: T2, human ANGPTL8; experiment: as above
Description: as §1

human ANGPTL3 [9] = molecular target: T3, human ANGPTL3; experiment: as above
Description: as §1

mouse ANGPTL3/8 complex = molecular target: T4, mouse ANGPTL3/8 complex; experiment: cell-based or functional assay
human ANGPTL3/8 complex [10] = molecular target: T1, human ANGPTL3/8 complex; experiment: cell-based or functional assay

| OD at 560 nm (human ANGPTL3/8 complex [1]) [OD 560 nm] | OD at 560 nm (human ANGPTL8 [2]) [OD 560 nm] | OD at 560 nm (human ANGPTL3 [3]) [OD 560 nm] | OD at 560 nm (human ANGPTL3/8 complex [4]) [OD 560 nm] | OD at 560 nm (human ANGPTL8 [5]) [OD 560 nm] | OD at 560 nm (human ANGPTL3 [6]) [OD 560 nm] | OD at 560 nm (human ANGPTL3/8 complex [7]) [OD 560 nm] | OD at 560 nm (human ANGPTL8 [8]) [OD 560 nm] | OD at 560 nm (human ANGPTL3 [9]) [OD 560 nm] | % Max Derepression LPL (mouse ANGPTL3/8 complex) [%] | Ab EC50 (nM), derepression of LPL (mouse ANGPTL3/8 complex) [nM] | % Max Derepression LPL (human ANGPTL3/8 complex [10]) [%] | Ab EC50 (nM), derepression of LPL (human ANGPTL3/8 complex [10]) [nM] | Binder |
| --- | --- | --- | --- | --- | --- | --- | --- | --- | --- | --- | --- | --- | --- |
| 0.51 | 0.043 | 0.043 | 1.04 | 0.051 | 0.046 | 2.41 | 0.05 | 0.052 |  |  |  |  | anti-ANGPTL3/8 complex Ab having a LC of SEQ ID NO:5 and a HC of SEQ ID NO:6 (antibody, human IgG4 S228P, kappa, F234A L235A, V domains shown, In the ELISA assays tested as IgG from CHO supernatants; also called the Ab) VH: QVTLKESGPTLVKPTQTLTLTCTFSGFSLSISGVGVGWIRQPPGKALEWLALIYRNDDKRYSPSLKSRLTITKDTSKNQVVLTLTNMDPVDTATYYCARTYSSGWYGNWFDPWGQGTLVTVSS VL: DIVMTQTPLSLPVTPGEPASISCRSSQSLLDSDDGNTYLDWYLQKPGQSPQLLIYMLSYRASGVPDRFSGSGSGTDFTLKISRVEAEDVGIYYCMQRIEFPLTFGGGTKVEIKR |
| 0.575 | 0.058 | 0.059 | 1.13 | 0.056 | 0.06 | 2.23 | 0.063 | 0.069 | 110 | 1.65 | 106 | 0.49 | Ab with LC variant having a E99Q mutation (SEQ ID NO:25) and a HC of SEQ ID NO:6 (antibody, human IgG4 S228P, kappa, F234A L235A, V domains shown, also called E99Q Variant Ab; E99Q Ab) VH: QVTLKESGPTLVKPTQTLTLTCTFSGFSLSISGVGVGWIRQPPGKALEWLALIYRNDDKRYSPSLKSRLTITKDTSKNQVVLTLTNMDPVDTATYYCARTYSSGWYGNWFDPWGQGTLVTVSS VL: DIVMTQTPLSLPVTPGEPASISCRSSQSLLDSDDGNTYLDWYLQKPGQSPQLLIYMLSYRASGVPDRFSGSGSGTDFTLKISRVEAEDVGIYYCMQRIQFPLTFGGGTKVEIKR |
| 0.575 | 0.058 | 0.059 | 1.13 | 0.056 | 0.06 | 2.23 | 0.063 | 0.069 | 110 | 1.79 | 106 | 0.86 | Ab with LC variant having a D31S mutation (SEQ ID NO:21) and a HC of SEQ ID NO:6 (antibody, human IgG4 S228P, kappa, F234A L235A, V domains shown, also called D31S Variant Ab; D31S Ab) VH: QVTLKESGPTLVKPTQTLTLTCTFSGFSLSISGVGVGWIRQPPGKALEWLALIYRNDDKRYSPSLKSRLTITKDTSKNQVVLTLTNMDPVDTATYYCARTYSSGWYGNWFDPWGQGTLVTVSS VL: DIVMTQTPLSLPVTPGEPASISCRSSQSLLSSDDGNTYLDWYLQKPGQSPQLLIYMLSYRASGVPDRFSGSGSGTDFTLKISRVEAEDVGIYYCMQRIEFPLTFGGGTKVEIKR |
| 0.491 | 0.049 | 0.057 | 1.04 | 0.048 | 0.056 | 2.18 | 0.049 | 0.067 | 106 | 4.07 | 103 | 1.14 | Ab with LC variant having a D33A mutation (SEQ ID NO:22) and a HC of SEQ ID NO:6 (antibody, human IgG4 S228P, kappa, F234A L235A, V domains shown, also called D33A Variant Ab; D33A Ab) VH: QVTLKESGPTLVKPTQTLTLTCTFSGFSLSISGVGVGWIRQPPGKALEWLALIYRNDDKRYSPSLKSRLTITKDTSKNQVVLTLTNMDPVDTATYYCARTYSSGWYGNWFDPWGQGTLVTVSS VL: DIVMTQTPLSLPVTPGEPASISCRSSQSLLDSADGNTYLDWYLQKPGQSPQLLIYMLSYRASGVPDRFSGSGSGTDFTLKISRVEAEDVGIYYCMQRIEFPLTFGGGTKVEIKR |
